Assay results taken from patent US20250276015A1 (US Dept. of Health and Human Services, published 2025).

How the values were obtained:
[1] = biological target: HERV-K Env-green fluorescent protein (GFP) fusion protein in transfected HEK293T cells (human endogenous retrovirus-K (HERV-K)); test: flow cytometry on fixed HEK293T cells transfected with Env-GFP; G10, anti-Myc antibody, Alexa Fluor 647 secondary antibody
[2] = biological target: T1, purified recombinant HERV-K Env protein (human endogenous retrovirus-K (HERV-K)); test: protein thermal shift assay (DSF); HERV-K Env with 1-3 nM G10
T1 chain: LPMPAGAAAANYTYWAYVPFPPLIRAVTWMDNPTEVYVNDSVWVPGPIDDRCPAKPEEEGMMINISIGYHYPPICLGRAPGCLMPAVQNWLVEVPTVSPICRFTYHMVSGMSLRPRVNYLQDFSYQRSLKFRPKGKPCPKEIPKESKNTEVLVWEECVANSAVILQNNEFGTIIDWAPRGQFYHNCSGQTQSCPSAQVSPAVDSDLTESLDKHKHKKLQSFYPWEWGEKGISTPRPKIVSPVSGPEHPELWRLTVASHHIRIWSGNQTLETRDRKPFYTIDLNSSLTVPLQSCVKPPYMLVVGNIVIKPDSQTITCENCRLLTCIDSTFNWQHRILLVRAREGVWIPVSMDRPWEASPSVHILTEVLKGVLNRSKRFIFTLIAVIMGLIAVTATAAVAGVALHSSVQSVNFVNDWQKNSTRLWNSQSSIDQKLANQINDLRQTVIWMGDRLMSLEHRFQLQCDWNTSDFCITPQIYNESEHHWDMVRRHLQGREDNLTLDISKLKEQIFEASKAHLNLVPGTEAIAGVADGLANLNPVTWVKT

B1: HERV-K Env nanobody G10 (VHH)
VHH: EVQLQASGGGFVQPGGSLRLSCAASGSTWYLDAMGWFRQAPGKEREFVSAISDLDDTARYYADSVKGRFTISRDNSKNTVYLQMNSLRAEDTATYYCAYLGATMAETYWGQGTQVTVSS
notes: Recombinant protein made in E. coli; From Hybrigenics antibody phage display; also called nanobody clone G10; G10 nanobody
- % of cells in the DP quadrant (GFP and Alexa Fluor 647) [1]: 39.4%
- shift in Tm [2]: ~2.5 ° C.
